The record followed here is patent US20060134709A1.

Assay [1] deals with soluble monomeric FcγRIIIA-linker-AVITAG (human) (UniProt P08637). Kind of assay: BIAcore.
In assay [2] the target is FcγRIIB-Fc fusion protein (human) (UniProt P31994). Kind of assay: BIAcore.
The target of assay [3] is soluble monomeric FcγRIIIA-linker-AVITAG (human) (UniProt P08637). Kind of assay: ELISA. (In general: An ELISA detects its analyte on a solid surface through an enzyme-linked reagent.)
The next assay deals with soluble FcγRIIB (human) (UniProt P31994). Kind of assay: ELISA.

The term Kd denotes a measure of binding affinity in units of concentration. Lower therefore signals higher affinity. A word on the koff: it is the rate constant with which the complex falls apart. Read a low koff as a long-lived complex. Take ch4-4-20 F243I, V379L (antibody): in assay [1], the Kd was 0.0997 µM and the koff turned out to be 0.105 s⁻¹. Moreover, in assay [2], the Kd turned out to be 0.12 µM and the koff worked out at 0.113 s⁻¹.
Regarding ch4-4-20 V379M (antibody), the Kd in assay [1] stood at 0.16 µM.
Substance ch4-4-20 A330V, G427M (antibody) yielded a Koff WT/Mut in assay [2] of 0.62.
ch4-4-20 Y319F, P352L, P396L (antibody): the Kd in assay [1] was found to be 0.125 µM; in assay [2] it was 0.0557 µM.
For the substance ch4-4-20 E233G (antibody), the Koff WT/Mut in assay [2] was 0.54.
Still for that read-out and setting: to ch4-4-20 S298N, K360R, N361D (antibody) belongs 0.67.
ch4-4-20 R292G (antibody) displayed a Koff WT/Mut in assay [2] of 0.67.
Regarding ch4-4-20 S298N, S407R (antibody), the fold increase vs wt amounted to 0.5 x in assay [3] and 7 x in the assay with soluble FcγRIIB (human).
In assay [1], ch4-4-20 K334E, T359N, T366S (antibody) displayed a Kd of 0.0552 µM and a koff of 0.128 s⁻¹. Besides, in assay [2], the Kd is 0.072 µM and the koff amounted to 0.11 s⁻¹. Further, in assay [3], the fold increase vs wt is 1.5 x and the fold vs wt was 1.5 X.
Consider ch4-4-20 V240I, V281M (antibody), for which the fold decrease vs wt (in assay [3]; in the assay with soluble FcγRIIB (human)) was 0.25 x throughout.
Regarding ch4-4-20 V305L, P396L (antibody), the fold increase vs wt in assay [3] is 1.3 x; in the assay with soluble FcγRIIB (human) it was 5.5 x.
On to ch4-4-20 S375C, P396L (antibody), for which the fold increase vs wt was 1.5 x in assay [3] and 4.5 x with soluble FcγRIIB (human).
On to ch4-4-20 P227S, P396L (antibody), for which the values for the fold increase vs wt (in assay [3]; in the assay with soluble FcγRIIB (human)) were 1.5 x and 4 x, respectively.
For ch4-4-20 T223I, T256S, L406F (antibody) the same measures were 0.25 x and 6 x.
With “ch4-4-20 P244H, L358M, V379M, N384K, V397M (antibody)”, the fold increase vs wt in assay [3] was 1.75 x; in the assay with soluble FcγRIIB (human) it was 1.5 x.
For ch4-4-20 P217S, A378V, S408R (antibody) the same measures were 2 x and 4.5 x.
ch4-4-20 K326I, P396L (antibody): the values for the fold increase vs wt (in assay [3]; in the assay with soluble FcγRIIB (human)) were 2.9 x and 5.9 x, respectively.
For ch4-4-20 K317N, F423-deleted (antibody) the same measures were 2.5 x and 7 x.
For “ch4-4-20 V348M, K334N, F275I, Y202M, K147T (antibody)” the same measures were 0.5 x and 0.75 x.
The corresponding values for ch4-4-20 P247L, E389G (antibody) are 1.5 x and 9 x.
Consider “ch4-4-20 K222N, T335N, K370E, A378V, T394M (antibody)”, for which the values for the fold increase vs wt (in assay [3]; with soluble FcγRIIB (human)) were 1 x and 7 x, respectively.
As for ch4-4-20 R301H, K340E, D399E (antibody), the fold decrease vs wt in assay [3] was determined as 0.5 x; with soluble FcγRIIB (human), 0.25 x.
Take ch4-4-20 K290T, N390I, P396L (antibody): the values for the fold increase vs wt (in assay [3]; with soluble FcγRIIB (human)) were 2.8 x and 6.1 x, respectively.
Take ch4-4-20 A330V (antibody): the Koff WT/Mut in assay [2] was 0.61.
Take ch4-4-20 V215I, K290V, P396L (antibody): the fold increase vs wt in assay [3] worked out at 2.2 x; with soluble FcγRIIB (human) it was 4.6 x.
The corresponding values for ch4-4-20 L410H, P396L (antibody) are 1.7 x and 4.5 x.
For ch4-4-20 V427A, P396L (antibody) the same measures were 1.9 x and 4.7 x.
For ch4-4-20 P217A, T359A, P396L (antibody) the same measures were 1.5 x and 4.8 x.
As to ch4-4-20 E216D, E345K, S375I (antibody), the fold increase vs wt in assay [3] was found to be 0.5 x; with soluble FcγRIIB (human), 4 x.
With “ch4-4-20 T215P, K274N, A287G, K334N, L365V, P396L (antibody)”, the figures for the fold increase vs wt (in assay [3]; with soluble FcγRIIB (human)) were 2 x and 4 x, respectively.
The corresponding values for ch4-4-20 V323I, P396L (antibody) are 1.1 x and 8.2 x.
For ch4-4-20 V240A, P396L (antibody) the same measures were 1.3 x and 4.2 x.
The corresponding values for ch4-4-20 E258D, N384K (antibody) are 1.25 x and 4 x.
As to “ch4-4-20 V273I, K326E, L328I, P396L (antibody)”, the fold increase vs wt in assay [3] was determined as 1.3 x; with soluble FcγRIIB (human), 10.8 x.
For ch4-4-20 I377F (antibody) the same measures were 1.5 x and 0.5 x.
For ch4-4-20 V303I, P396L (antibody) the same measures were 1.1 x and 4 x.
For ch4-4-20 K210M, P396L (antibody) the same measures were 1.9 x and 4.6 x.
In the case of ch4-4-20 N315I, V379M, T394M (antibody), in assay [3], the fold increase vs wt stood at 1 x and the fold vs wt amounted to 1 X. In the assay with soluble FcγRIIB (human), the fold increase vs wt is 9 x and the fold vs wt was determined as 9 X.
For ch4-4-20 L242F, P396L (antibody), the fold increase vs wt in assay [3] was determined as 2.5 x; in the assay with soluble FcγRIIB (human), 4.1 x.
For “ch4-4-20 F275L, Q362H, N384K, P396L (antibody)” the same measures were 2.2 x and 3.7 x.
The corresponding values for ch4-4-20 K370E, P396L (antibody) are 2 x and 6.6 x.
The corresponding values for ch4-4-20 N384K, P396L (antibody) are 2.2 x and 5.2 x.
Regarding ch4-4-20 D399E, M428L (antibody), the fold decrease vs wt (in assay [3]; with soluble FcγRIIB (human)) was 0.5 x in each case.
As to “ch4-4-20 K210N, K222I, K320M, P396L (antibody)”, the fold increase vs wt in assay [3] was determined as 2.7 x; with soluble FcγRIIB (human), 8.7 x.
For ch4-4-20 A231V, Q386H, V412M (antibody) the same measures were 1.5 x and 6 x.
In turn, ch4-4-20 N276Y (antibody) registered a Koff WT/Mut in assay [2] of 0.64.
Turning to “ch4-4-20 P217S, V305I, I309L, N390H, P396L (antibody)”, the fold increase vs wt in assay [3] was 2 x; with soluble FcγRIIB (human), 7 x.
The corresponding values for ch4-4-20 S400F, P396L (antibody) are 1.5 x and 4.7 x.
The corresponding values for ch4-4-20 P247L (antibody) are 0.5 x and 4 x.
Turning to ch4-4-20 S408I, V215I, V125L (antibody), the values for the fold increase vs wt (in assay [3]; with soluble FcγRIIB (human)) were 0.5 x and 0.75 x, respectively.
The corresponding values for ch4-4-20 R255L, P396L (antibody) are 1.8 x and 6 x.
The corresponding values for ch4-4-20 K326I, S408N, P396L (antibody) are 4 x and 9.3 x.
The corresponding values for ch4-4-20 P244H, P396L (antibody) are 2.5 x and 4 x.
For the substance ch4-4-20 P247S, P396L (antibody), the fold increase vs wt in assay [3] was 1.2 x; with soluble FcγRIIB (human) it was 4.2 x.
Turning to ch4-4-20 T225S (antibody), the fold decrease vs wt worked out at 0.25 x in assay [3] and 0.5 x in the assay with soluble FcγRIIB (human).
With ch4-4-20 K370N, S440N (antibody), the figures for the fold increase vs wt (in assay [3]; with soluble FcγRIIB (human)) were 1 x and 3.5 x, respectively.
The corresponding values for ch4-4-20 V282E, V369I, L406F (antibody) are 0.5 x and 7 x.
As for ch4-4-20 P247L, A330T, S440G (antibody), the fold increase vs wt in assay [3] turned out to be 0.75 x. Also, the fold decrease vs wt in the assay with soluble FcγRIIB (human) came to 0.25 x.
In assay [2], ch4-4-20 F243I, V379L, G420V (antibody) returned a Kd of 0.0934 µM and a koff of 0.101 s⁻¹.
As to “ch4-4-20 P343S, P353L, S375I, S383N (antibody)”, the fold increase vs wt in assay [3] turned out to be 0.5 x; in the assay with soluble FcγRIIB (human), 6 x.
For ch4-4-20 T250S, P396L (antibody) the same measures were 1.5 x and 6.8 x.
Regarding ch4-4-20 P247L, N421K (antibody), in assay [1], the Kd turned out to be 0.062 µM and the koff was 0.108 s⁻¹. In assay [2], this substance had a Kd of 0.066 µM and a koff of 0.065 s⁻¹. In addition, in assay [3], the fold increase vs wt is 3 x and the fold vs wt was determined as 3 X.
In assay [1], ch4-4-20 G316D, A378V, D399E (antibody) returned a Kd of 0.072 µM and a koff of 0.117 s⁻¹. In assay [2], this substance registered a Kd of 0.046 µM and a koff of 0.06 s⁻¹. For the same substance, in assay [3], the fold increase vs wt is 1.5 x and the fold vs wt was determined as 1.5 X. In addition, in the assay with soluble FcγRIIB (human), the fold increase vs wt is 14 x and the fold vs wt was determined as 14 X.
For the substance ch4-4-20 H268D, P396L (antibody), the fold increase vs wt in assay [3] is 3.8 x; in the assay with soluble FcγRIIB (human) it was 13.7 x.
The corresponding values for ch4-4-20 S415I, L251F (antibody) are 0.5 x and 0.75 x.
For “ch4-4-20 K290E, V369A, T393A, P396L (antibody)”, the fold increase vs wt amounted to 1.3 x in assay [3] and 6.7 x with soluble FcγRIIB (human).
In the case of “ch4-4-20 D221Y, M252I, A330G, A339T, T359N, V422I, H433L (antibody)”, the fold increase vs wt in assay [3] was 2.5 x; with soluble FcγRIIB (human), 6 x.
In the case of “ch4-4-20 F243L, V305I, A378D, F404S, P396L (antibody)”, the fold increase vs wt in assay [3] was 1.6 x; with soluble FcγRIIB (human) it was 5.4 x.
